Here are results for eight sequences from the DeepSol protein solubility set.

This series can be described thus: soluble on expression in E. coli; label from the status in PepcDB or PDB records.
With “SLANIREIAKRAGISIATVSRHLNNTGYVSEDAREKIQKVVDELNYTPNALARAMFTKNSKTIGLMVPNISNPFFNQMASVIEEYAKNKGYTLFLCNTDDDKEKEKTYLEVLQSHRVAGIIASRSQCEDEYANIDIPVVAFENHILDNIITISSDNYNGGRMAFDHLYEKGCRKILHIKGPEVFEATELRYKGFLDGARAKDLEIDFIEFQHDFQVKMLEEDINSMKDIVNYDGIFVFNDIAAATVMRALKKRGVSIPQEVQIIGFDNSFIGELLYPSLTTINQPIEALAYTIIELLIKIINGEGVLIEDYIMEVKLIERETTISLKDEG”, the “soluble on expression in E. coli” value is reported as “soluble”.

As for “MFLRLFKYLWPERYLPEIPAQDPFDENPPPCGPGRVGVLLVNLGTPDEPTRGAIRRYLGEFLSDPRVIEIPRYLWMPILHGLVLAMRPKKLAPRYAGIWMEEGSPLLVYSQRQAAGVRQGLAARGVHAEVELAMRYGKPSIPAAITALRERGCDHILAVPLYPQYAASTTATVVDAVTRHAGRLRDQPALRFVKRFHNDPAYVEAQAGRIAEFWQAHGRPQKLVMSFHGLPRYSIELGDPYYRDCLDTARLLRERLGLREDEVEVTFQSRFGSARWLEPYTEPTLAELARQGVTEVDVVCPGFVADCLETLEEISQECRDAFVAAGGRQFRYIPALNDCPPWIEGLTDLVERQLRGWPTGNP”, the “soluble on expression in E. coli” value is “not soluble”.

Turning to “MGSDKIHHHHHHMKLISVRRIWEQAAHNAFTDLIAFQEALFCVFREGTAHVSPDGALRILRSVDGGETWQSVALIRSDEADLRDGKLIEYQGELLLLGGGTLHNKSGLQSHLWRSADGRVWSDALKIADKGYWLWRLTEHQNTLYGVGYRPGPDGDTRLYKSEDGVQFKTWLKVFNNQGYVNETAIVFDQDSGFCLLRRDPVWGPEFFGLLGHSRAPFTDWQWQELDKRIGGPVMLMYQSRLLAVVRLYDEQVRTALVEIHSDTGVVQELLTLPSKGDTSYAGVVIDGNELWVSYYSSHELADSQLDTQNSLDESSRAGKAKTMIYFAKILLS”, the “soluble on expression in E. coli” value is given as “not soluble”.

Turning to “MSLEYAKSLFERHLDIASKFRPKNPYLKTAYMNVLLSLTQTICQSPQELSNDDLSDAGAALAYLREAGFELDWLEKKLNEVKEKKKKEEACLAEIQDMDEHVKPLKKKYLDLEAQIDKKKAELLAARAPLSLNDDNVVSMFCDSAETQQWFDKNAPDWGFTEMISLTELHAEEGLLRNGELTVVAKVEVLEVVGKLDVSEESSPVIETIDVNGFQVLPSEGHHHHHH”, the “soluble on expression in E. coli” value was “soluble”.

As for “DSYYNGHQDGDAIAYLILANKLIHELCPDAITIAEEVSGMPGLALPLADGGYGFDYRLAMNIPDFWIKLIKEHRDEDWNPGDIWYQLTNRRQEEKTISYAESHDQALVGDKTIIFRLIDADMYWYMNKQSCVHSVDRGIALLKMIRLFTATTMNGGYLNFMGNEFGHPEWIDFPREGNGWSYKYARRQWSLADSPFLRYAGLHLFDQDMIAMIRSVESFHKLPLREYWLKREEQVICYGRGDFFFVFNFHPERSYSDYPIPLPAGKYSVAMSTDARKYEGFGRVDEWVEHFTLPDGSKDRFTHEQYLNLYLPARSALVLKLAE”, the “soluble on expression in E. coli” value is listed as “not soluble”.

On to “MLTEGISIQSYDGHTFGALVGSPAKAPAPVIVIAQDIFGVNAFMRETVSWLVDQGYAAVCPDLYARQAPGTALDPQDERQREQAYKLWQAFDMEAGVGDLEAAIRYARHQPYSNGKVGLVGYSLGGALAFLVASKGYVDRAVGYYGVGLEKQLNKVPEVKHPALFHMGGQDHFVPAPSRQLITEGFGANPLLQVHWYEEAGHSFARTGSSGYVASAAALANERTLDFLVPLQSRKP”, for which the “soluble on expression in E. coli” value is reported as “soluble”.

As to “TGKKAILRLSKRAMHLEWKLVKEIIFLGTSGFVMSVTNGFVQIVCNATLQRYGGDIYVGIMTVINSVREIVTMPVTGLTAASQPVIGYNYGAGCYQRVKSA”, the “soluble on expression in E. coli” value was “not soluble”.

In the case of “MLTLENQIKEEREQDNSESPNGRTSPLVSQNNEQGSTLRDLLTTTAGKLRVGSTDAGIAFAPVYAMGAPSSKSGRTMPNILDDIIASVVENKIPPSKTSKINVKPELKEEPEESIISAVDENNKLYSDIPHSWICEKHILWLRIIRIAVIGSFSKNVGNKDSLQWFLVCIRKLEHHHHHH”, the “soluble on expression in E. coli” value is listed as “not soluble”.
